Source: the supplement of paper PMC6757056
± gives the standard deviation of the averaged measurements.

B1: library; a variant is named by its letters at N, in order (parent)
chain: GCUGUCACCGGUGUAUUACCCUAGUGGUCGACCGGUCUGAUGAGUCUNNNNNNAGACGAAACAGC

How the values were obtained:
[1] = variants of: B1; assay: FACS-Seq fitted mean relative fluorescence mCherry/BFP without ligand (log10 relative fluorescence); ligand: hypoxanthine (xanthine aptamer); higher = higher reporter protein expression; settings: HEK293T, ligand present: no
Summary of the method: (§1)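 After lentiviral transduction, HEK293T library cells bearing an mCherry ribozyme-switch reporter and an EF1α-BFP marker were enriched. They were then held for 48 h with or without ligand and sorted by mCherry/BFP into 6 bins, and each bin's genomic DNA was PCR-amplified, barcoded and MiSeq-sequenced. Fluorescence is expressed as a normalized fitted mean: the normal mean of log10(mCherry/BFP) bin counts, scaled to five spiked-in control ribozymes.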

[2] = variants of: B1; assay: normalized RNA/DNA level with ligand (relative to sTRSVctl = 100) (log10 (% of sTRSVctl)); ligand: hypoxanthine (xanthine aptamer); higher = less ribozyme self-cleavage, higher mRNA level; settings: ligand concentration (+) RNA-Seq: 5 mM, HEK293T, reporter: mCherry (pCS4076), ligand present: yes
Description: (§2)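 Hammerhead (sTRSV) ribozyme switch libraries with a ligand aptamer grafted on stem I and a randomized N4-6 loop II, cloned into the 3' UTR of mCherry and transiently transfected into HEK293T cells; RNA-Seq 72 h post transfection with ligand added 1 h before transfection; RNA read count / plasmid DNA read count normalized to the non-cleaving sTRSVctl (x100), log10; sequences with >100 DNA reads. FACS-Seq: lentiviral library sorted into 6 bins after 48 h ligand, log-normal fit mean of mCherry/BFP scaled to controls. Printed sequences are partial switch sequences.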

[3] = variants of: B1; assay: normalized RNA/DNA level without ligand (relative to sTRSVctl = 100) (log10 (% of sTRSVctl)); ligand: hypoxanthine (xanthine aptamer); higher = less ribozyme self-cleavage, higher mRNA level; settings: HEK293T, reporter: mCherry (pCS4076), ligand present: no
Description: as §2

[4] = variants of: B1; assay: FACS-Seq fitted mean relative fluorescence mCherry/BFP with ligand (log10 relative fluorescence); ligand: hypoxanthine (xanthine aptamer); ligand concentration (+) FACS-Seq: 5 mM; higher = higher reporter protein expression; settings: HEK293T, ligand present: yes
Summary of the method: as §1

Variant: GCUGUCACCGGUGUAUUACCCUAGUGGUCGACCGGUCUGAUGAGUCUUAAUCGAGACGAAACAGC [UAAUCG]
- FACS-Seq fitted mean (log10) [1]: -0.0742 ± 0.028
- normalized RNA/DNA level with ligand (log10) [2]: 1.93 ± 0.021
- normalized RNA/DNA level without ligand (log10) [3]: 1.633 ± 0.014
- FACS-Seq fitted mean (log10) [4]: 0.247 ± 0.059

Variant: GCUGUCACCGGUGUAUUACCCUAGUGGUCGACCGGUCUGAUGAGUCUUAAUCUAGACGAAACAGC [UAAUCU]
- FACS-Seq fitted mean (log10) [1]: 0.5653 ± 0.0022
- normalized RNA/DNA level with ligand (log10) [2]: 1.96 ± 0.043
- normalized RNA/DNA level without ligand (log10) [3]: 1.87 ± 0.061
- FACS-Seq fitted mean (log10) [4]: 0.561 ± 0.067

Variant: GCUGUCACCGGUGUAUUACCCUAGUGGUCGACCGGUCUGAUGAGUCUAAAUGGAGACGAAACAGC [AAAUGG]
- FACS-Seq fitted mean (log10) [1]: 0.175 ± 0.024
- normalized RNA/DNA level with ligand (log10) [2]: 1.78 ± 0.025
- normalized RNA/DNA level without ligand (log10) [3]: 1.33 ± 0.019
- FACS-Seq fitted mean (log10) [4]: 0.502 ± 0.013

Variant: GCUGUCACCGGUGUAUUACCCUAGUGGUCGACCGGUCUGAUGAGUCUAAAUGAAGACGAAACAGC [AAAUGA]
- FACS-Seq fitted mean (log10) [1]: 0.89 ± 0.066
- normalized RNA/DNA level with ligand (log10) [2]: 1.924 ± 0.0069
- normalized RNA/DNA level without ligand (log10) [3]: 1.688 ± 0.0025
- FACS-Seq fitted mean (log10) [4]: 0.709 ± 0.13

Variant: GCUGUCACCGGUGUAUUACCCUAGUGGUCGACCGGUCUGAUGAGUCUAAAUGCAGACGAAACAGC [AAAUGC]
- FACS-Seq fitted mean (log10) [1]: -0.0368 ± 0.059
- normalized RNA/DNA level with ligand (log10) [2]: 1.92 ± 0.029
- normalized RNA/DNA level without ligand (log10) [3]: 1.76 ± 0.026
- FACS-Seq fitted mean (log10) [4]: 0.173 ± 0.096

Variant: GCUGUCACCGGUGUAUUACCCUAGUGGUCGACCGGUCUGAUGAGUCUGAAUGCAGACGAAACAGC [GAAUGC]
- FACS-Seq fitted mean (log10) [1]: 0.275 ± 0.016
- normalized RNA/DNA level with ligand (log10) [2]: 1.863 ± 0.014
- normalized RNA/DNA level without ligand (log10) [3]: 1.53 ± 0.03
- FACS-Seq fitted mean (log10) [4]: 0.577 ± 0.011

Variant: GCUGUCACCGGUGUAUUACCCUAGUGGUCGACCGGUCUGAUGAGUCUGAAUGGAGACGAAACAGC [GAAUGG]
- FACS-Seq fitted mean (log10) [1]: -0.206 ± 0.053
- normalized RNA/DNA level with ligand (log10) [2]: 1.76 ± 0.037
- normalized RNA/DNA level without ligand (log10) [3]: 1.216 ± 0.012
- FACS-Seq fitted mean (log10) [4]: 0.417 ± 0.012

Variant: GCUGUCACCGGUGUAUUACCCUAGUGGUCGACCGGUCUGAUGAGUCUGAAUGAAGACGAAACAGC [GAAUGA]
- FACS-Seq fitted mean (log10) [1]: 0.481 ± 0.081
- normalized RNA/DNA level with ligand (log10) [2]: 1.922 ± 0.0024
- normalized RNA/DNA level without ligand (log10) [3]: 1.66 ± 0.057
- FACS-Seq fitted mean (log10) [4]: 0.688 ± 0.028

Variant: GCUGUCACCGGUGUAUUACCCUAGUGGUCGACCGGUCUGAUGAGUCUGAAUGUAGACGAAACAGC [GAAUGU]
- FACS-Seq fitted mean (log10) [1]: 0.27 ± 0.024
- normalized RNA/DNA level with ligand (log10) [2]: 1.91 ± 0.022
- normalized RNA/DNA level without ligand (log10) [3]: 1.718 ± 0.0052
- FACS-Seq fitted mean (log10) [4]: 0.381 ± 0.07

Variant: GCUGUCACCGGUGUAUUACCCUAGUGGUCGACCGGUCUGAUGAGUCUGAAUUAAGACGAAACAGC [GAAUUA]
- FACS-Seq fitted mean (log10) [1]: 0.374 ± 0.05
- normalized RNA/DNA level with ligand (log10) [2]: 1.91 ± 0.043
- normalized RNA/DNA level without ligand (log10) [3]: 1.804 ± 0.012
- FACS-Seq fitted mean (log10) [4]: 0.557 ± 0.089

Variant: GCUGUCACCGGUGUAUUACCCUAGUGGUCGACCGGUCUGAUGAGUCUGAAUUCAGACGAAACAGC [GAAUUC]
- FACS-Seq fitted mean (log10) [1]: 0.407 ± 0.28
- normalized RNA/DNA level with ligand (log10) [2]: 1.929 ± 0.0056
- normalized RNA/DNA level without ligand (log10) [3]: 1.9 ± 0.039
- FACS-Seq fitted mean (log10) [4]: 0.388 ± 0.089

Variant: GCUGUCACCGGUGUAUUACCCUAGUGGUCGACCGGUCUGAUGAGUCUUAAUGGAGACGAAACAGC [UAAUGG]
- FACS-Seq fitted mean (log10) [1]: 0.218 ± 0.021
- normalized RNA/DNA level with ligand (log10) [2]: 1.87 ± 0.044
- normalized RNA/DNA level without ligand (log10) [3]: 1.53 ± 0.052
- FACS-Seq fitted mean (log10) [4]: 0.457 ± 0.038

Variant: GCUGUCACCGGUGUAUUACCCUAGUGGUCGACCGGUCUGAUGAGUCUCAAUUAAGACGAAACAGC [CAAUUA]
- FACS-Seq fitted mean (log10) [1]: 0.8094 ± 0.0076
- normalized RNA/DNA level with ligand (log10) [2]: 1.89 ± 0.049
- normalized RNA/DNA level without ligand (log10) [3]: 1.728 ± 0.0045
- FACS-Seq fitted mean (log10) [4]: 0.753 ± 0.03

Variant: GCUGUCACCGGUGUAUUACCCUAGUGGUCGACCGGUCUGAUGAGUCUCAAUUGAGACGAAACAGC [CAAUUG]
- FACS-Seq fitted mean (log10) [1]: 0.324 ± 0.016
- normalized RNA/DNA level with ligand (log10) [2]: 1.96 ± 0.026
- normalized RNA/DNA level without ligand (log10) [3]: 1.894 ± 0.014
- FACS-Seq fitted mean (log10) [4]: 0.498 ± 0.044

Variant: GCUGUCACCGGUGUAUUACCCUAGUGGUCGACCGGUCUGAUGAGUCUUAAUUAAGACGAAACAGC [UAAUUA]
- FACS-Seq fitted mean (log10) [1]: 0.737 ± 0.055
- normalized RNA/DNA level with ligand (log10) [2]: 1.92 ± 0.081
- normalized RNA/DNA level without ligand (log10) [3]: 1.87 ± 0.032
- FACS-Seq fitted mean (log10) [4]: 0.65 ± 0.063

Variant: GCUGUCACCGGUGUAUUACCCUAGUGGUCGACCGGUCUGAUGAGUCUUAAUUCAGACGAAACAGC [UAAUUC]
- FACS-Seq fitted mean (log10) [1]: 0.569 ± 0.0061
- normalized RNA/DNA level with ligand (log10) [2]: 1.96 ± 0.029
- normalized RNA/DNA level without ligand (log10) [3]: 1.91 ± 0.0049
- FACS-Seq fitted mean (log10) [4]: 0.671 ± 0.032

Variant: GCUGUCACCGGUGUAUUACCCUAGUGGUCGACCGGUCUGAUGAGUCUAAAUCGAGACGAAACAGC [AAAUCG]
- FACS-Seq fitted mean (log10) [1]: 0.0899 ± 0.022
- normalized RNA/DNA level with ligand (log10) [2]: 1.86 ± 0.04
- normalized RNA/DNA level without ligand (log10) [3]: 1.36 ± 0.014
- FACS-Seq fitted mean (log10) [4]: 0.509 ± 0.04

Variant: GCUGUCACCGGUGUAUUACCCUAGUGGUCGACCGGUCUGAUGAGUCUCAAUGGAGACGAAACAGC [CAAUGG]
- FACS-Seq fitted mean (log10) [1]: -0.334 ± 0.031
- normalized RNA/DNA level with ligand (log10) [2]: 1.82 ± 0.071
- normalized RNA/DNA level without ligand (log10) [3]: 1.42 ± 0.042
- FACS-Seq fitted mean (log10) [4]: 0.178 ± 0.12

Variant: GCUGUCACCGGUGUAUUACCCUAGUGGUCGACCGGUCUGAUGAGUCUCAAUGUAGACGAAACAGC [CAAUGU]
- FACS-Seq fitted mean (log10) [1]: 0.483 ± 0.12
- normalized RNA/DNA level with ligand (log10) [2]: 1.91 ± 0.034
- normalized RNA/DNA level without ligand (log10) [3]: 1.86 ± 0.062
- FACS-Seq fitted mean (log10) [4]: 0.48 ± 0.078

Variant: GCUGUCACCGGUGUAUUACCCUAGUGGUCGACCGGUCUGAUGAGUCUAAAUUCAGACGAAACAGC [AAAUUC]
- FACS-Seq fitted mean (log10) [1]: 0.489 ± 0.043
- normalized RNA/DNA level with ligand (log10) [2]: 1.95 ± 0.041
- normalized RNA/DNA level without ligand (log10) [3]: 1.87 ± 0.033
- FACS-Seq fitted mean (log10) [4]: 0.603 ± 0.015

Variant: GCUGUCACCGGUGUAUUACCCUAGUGGUCGACCGGUCUGAUGAGUCUAAAUUAAGACGAAACAGC [AAAUUA]
- FACS-Seq fitted mean (log10) [1]: -0.311 ± 0.019
- normalized RNA/DNA level with ligand (log10) [2]: 1.899 ± 0.016
- normalized RNA/DNA level without ligand (log10) [3]: 1.83 ± 0.055
- FACS-Seq fitted mean (log10) [4]: -0.0839 ± 0.038
